Results reported in US10370436B2, “Anti-pseudomonas Psl binding molecules and uses thereof” (priority 2011, dated 2019).

Tests used:
[1] = tested on: P. aeruginosa strains PAO1, 33356, 6294, 6077; assay: P. aeruginosa acute pneumonia model, survival; format: in vivo, BALB/c mice; settings: strain 6077 (O11) 8×10^5 or 6×10^5 CFU; 5 and 1 mg/kg; FIGS. 6E, 6F
Description: FIG. 6 (A-G): Survival rates for animals treated with anti-Psl monoclonal antibodies Cam-003 or WapR-004 in a P. aeruginosa acute pneumonia model. (A-D) Animals were treated with Cam-003 at 45, 15, and 5 mg/kg and R347 at 45 mg/kg or PBS 24 hours prior to intranasal infection with (A) PAO1 (1.6×10^7 CFU), (B) 33356 (3×10^7 CFU), (C) 6294 (7×10^6 CFU), (D) 6077 (1×10^6 CFU). (E-F) Animals were treated with WapR-004 at 5 and 1 mg/kg as indicated followed by infection with 6077 at (E) (8×10^5 CFU), or (F) (6×10^5 CFU). Animals were carefully monitored for survival up to 72 hours (A-D) or for 120 hours (E-F). (G) Animals were treated with Cam-003 at 15 mg/kg or 5 mg/kg, or R347 at 15 mg/kg 24 hours prior to intranasal infection with PAO1 (4.4×10^7 CFU), and Cam-003 at 15 mg/kg 24 hours prior to intranasal infection with PAO1ΔpslA (3×10^7 CFU). In all experiments, PBS and R347 served as negative controls. Results are represented as Kaplan-Meier survival curves; differences in survival were calculated by the Log-rank test for Cam-003 vs. R347. (A) Cam-003 (45 mg/kg—P<0.0001; 15 mg/kg—P=0.0003; 5 mg/kg—P=0.0033). (B) Cam-003 (45 mg/kg—P=0.0012; 15 mg/kg—P=0.0012; 5 mg/kg—P=0.0373). (C) Cam-003 (45 mg/kg—P=0.0007; 15 mg/kg—P=0.0019; 5 mg/kg—P=0.0212). (D) Cam-003 (45 mg/kg—P<0.0001; 15 mg/kg—P<0.0001; 5 mg/kg—P=0.0001). Results are representative of at least two independent experiments. […]

[2] = tested on: P. aeruginosa strains PAO1, 33356, 6294, 6077, 6206; assay: Acute pneumonia model, organ burden; format: in vivo, BALB/c mice; settings: 6294 (O6) and 6206 (O11); FIGS. 7E, 7F
Description: Antibodies or PBS were administered 24 hours before infection in each model. P. aeruginosa acute pneumonia, keratitis, and thermal injury infection models were performed as described (DiGiandomenico, A., et al., Proc Natl Acad Sci USA 104, 4624-4629 (2007)), with modifications. In the acute pneumonia model, BALB/c mice (The Jackson Laboratory) were infected with P. aeruginosa strains suspended in a 0.05 ml inoculum. In the thermal injury model, CF-1 mice (Charles River) received a 10% total body surface area burn with a metal brand heated to 92° C. for 10 seconds. Animals were infected subcutaneously with P. aeruginosa strain 6077 at the indicated dose. For organ burden experiments, acute pneumonia was induced in mice followed by harvesting of lungs, spleens, and kidneys 24 hours post-infection for determination of CFU.

[3] = tested on: luminescent P. aeruginosa serogroup 05 strain (PAO1.lux); assay: Opsonophagocytosis killing (OPK) assay, PAO1.lux; format: cell-based, Pseudomonas aeruginosa; settings: human IgG1 antibodies, differentiated HL-60 cells, baby rabbit serum, FIG. 2A
Description: (§1) This example describes the evaluation of prioritized human IgG1 antibodies to promote OPK of P. aeruginosa. […] OPK assays were performed as described in (DiGiandomenico, A., et al., Infect Immun 72, 7012-7021 (2004)), with modifications. Briefly, assays were performed in 96-well plates using 0.025 ml of each OPK component; P. aeruginosa strains; diluted baby rabbit serum; differentiated HL-60 cells; and monoclonal antibody. In some OPK assays, luminescent P. aeruginosa strains, which were constructed as described (Choi, K. H., et al., Nat Methods 2, 443-448 (2005)), were used. Luminescent OPK assays were performed as described above but with determination of relative luciferase units (RLUs) using a Perkin Elmer ENVISION Multilabel plate reader (Perkin Elmer).
This example describes two series of experiments evaluating the ability of PMB-mAb conjugates to promote OPK of P. aeruginosa. In the first experiments (FIGS. 15A-B), conjugate-mediated OPK activity by human HL-60 neutrophil cell line in the presence of rabbit complement was evaluated using P. aeruginosa strains expressing bacterial luciferase as described in Example 2. R347 was used as a negative control in these experiments. […] In the second series of experiments, reduction in luminescence following 2 h incubation relative to control lacking mAb was used to determine % killing.

[4] = tested on: P. aeruginosa strain 9882-80 (O11); assay: OPK assay, strain 9882-80.lux; format: cell-based, Pseudomonas aeruginosa; settings: strain 9882-80.lux (O11); FIG. 2B
Description: as §1
The ability of the WapR-004 and Cam-003 antibodies to mediate OPK activity against another clinically relevant O-antigen serotype strain, 9882-80.lux, was evaluated.

B1: WapR-004: anti-Psl antibody, VH SEQ ID NO: 11 and VL SEQ ID NO: 12 (antibody, V domains shown)
VH: EVQLLESGPGLVKPSETLSLTCNVAGGSISPYYWTWIRQPPGKGLELIGYIHSSGYTDYNPSLKSRVTISGDTSKKQFSLHVSSVTAADTAVYFCARGDWDLLHALDIWGQGTLVTVSS
VL: EIVLTQSPSSLSTSVGDRVTITCRASQSIRSHLNWYQQKPGKAPKLLIYGASNLQSGVPSRFSGSGSGTDFTLTISSLQPEDFATYYCQQSYSFPLTFGGGTKLEIK
modifications: WapR-004 VH; WapR-004 & WarR-004RAD VL
For B1, the survival [1] was “significant concentration-dependent survival”, the “dissemination to the spleen and kidneys” value [2] was “effective at reducing P. aeruginosa dissemination to the spleen and kidneys” and the organ burden [2] was “reduced organ burden”. The “OPK activity (concentration dependent killing)” value [3] was “superior OPK activity” and the OPK activity [4] was “OPK activity extends to strain 9882-80”.
